Laboratory results taken from PMC8558862, “Imaging of Dysfunctional Elastogenesis in Atherosclerosis Using an Improved Gadolinium-Based Tetrameric MRI Probe Targeted to Tropoelastin” (Journal of Medicinal Chemistry, 2021).
Ends that are not written are not given here. (Gd-DOTA)4‑MI = maleimide-bearing lysine-based tetramer of four Gd(III)-DOTA-monoamide chelates

Columns and labels:
[1] = tested on: atherosclerotic plaques in the brachiocephalic artery of ApoE–/– mice; assay: In vivo LGE MRI at 3 T in atherosclerotic ApoE–/– mice; conditions: 0.2 mmol kg^–1 i.v.
Method: The Gd4-TESMA probe was assessed for its ability to enhance the MRI signal within plaques in the brachiocephalic artery of an ApoE^–/– murine model of plaque progression and in control nonatherosclerotic mice. For these studies, atherosclerotic ApoE^–/– mice were scanned after the tandem administration of Gd-ESMA, Gd-TESMA (24 h after the Gd-ESMA administration), and finally Gd4-TESMA (24 h after the Gd-TESMA administration; Supporting Information Figure S1). […] All molecular probes were injected at a dose of 0.2 mmol kg^–1 (corresponding to the same dose of injected gadolinium for Gd-ESMA and Gd-TESMA and to a dose of 0.8 mmolGd kg^–1 for Gd4-TESMA). […]
Following a 3D GRE scout scan, contrast-enhanced angiography images were acquired for visualization of the aortic root, aortic arch, and brachiocephalic and carotid arteries with a FOV = 30 × 30 × 8 mm, matrix = 200 × 200, in-plane resolution = 0.15 × 0.15 mm (reconstructed = 0.10 × 0.10 mm), slice thickness = 0.5 mm, TR/TE = 15/6.1 (ms), and flip angle = 40°. […] Late gadolinium enhanced images were acquired with an inversion-recovery 3D fast gradient echo sequence every 30 min for up to 2 h postinjection of the contrast agent and were used to visualize and quantify contrast uptake.

[2] = 1H NMRD profile fitting (SBM and Freed theory); format: physicochemical; conditions: HEPES buffer pH 7.2; Gd-TESMA NMRD at 2.3 mM
Method: Figure 4 ^1H NMRD profiles showing the millimolar relaxivity per gadolinium r1p of Gd-TESMA (2.3 mM, solid symbols) and Gd4-TESMA (1.3 mM, open symbols) in the HEPES buffer (pH 7.2) at 298 K (circles) and 310 K (squares). The solid line represents the best fitting of the experimental points at 310 K to the SBM and Freed theory of paramagnetic relaxation. The following parameters were kept fixed: water diffusion coefficient (D) = 3.1 10^–5 cm^2 s^–1; distance between Gd(III) and the inner sphere water protons (r) = 3.1 Å; number of inner sphere water molecules (q) = 1; and distance of the closest approach of outer-sphere water protons = 3.8 Å. Curve fitting converged to the following: correlation time for molecular reorientation (τR) = 170 ps; residence lifetime of the inner sphere water molecule (τM) = 460 ns; correlation time for electronic relaxation (τv) = 47 ps; and zero-field splitting energy (Δ^2) = 1.3 10^19 s^–2. […]
The water proton longitudinal relaxation rates as a function of the magnetic field strength were measured in aqueous solutions using a Fast Field-Cycling Stelar SmarTracer relaxometer (Stelar s.r.l., Mede (PV), Italy) over a continuum of magnetic field strengths from 0.00024 to 0.25 T (corresponding to 0.01–10 MHz proton Larmor frequencies). […]

[3] = molecular target: T1, immobilized human recombinant tropoelastin (Homo sapiens, UniProt P15502); assay: Surface plasmon resonance binding affinity (kinetic mode, 1:1 Langmuir model); conditions: SPR Biacore 2000, CM5 chip, 25 °C, HEPES running buffer pH 7.4; mean ± SD of triplicate measurements
T1 construct: purchased Advanced BioMatrix 5052-1MG
T1 sequence (P15502 27-786): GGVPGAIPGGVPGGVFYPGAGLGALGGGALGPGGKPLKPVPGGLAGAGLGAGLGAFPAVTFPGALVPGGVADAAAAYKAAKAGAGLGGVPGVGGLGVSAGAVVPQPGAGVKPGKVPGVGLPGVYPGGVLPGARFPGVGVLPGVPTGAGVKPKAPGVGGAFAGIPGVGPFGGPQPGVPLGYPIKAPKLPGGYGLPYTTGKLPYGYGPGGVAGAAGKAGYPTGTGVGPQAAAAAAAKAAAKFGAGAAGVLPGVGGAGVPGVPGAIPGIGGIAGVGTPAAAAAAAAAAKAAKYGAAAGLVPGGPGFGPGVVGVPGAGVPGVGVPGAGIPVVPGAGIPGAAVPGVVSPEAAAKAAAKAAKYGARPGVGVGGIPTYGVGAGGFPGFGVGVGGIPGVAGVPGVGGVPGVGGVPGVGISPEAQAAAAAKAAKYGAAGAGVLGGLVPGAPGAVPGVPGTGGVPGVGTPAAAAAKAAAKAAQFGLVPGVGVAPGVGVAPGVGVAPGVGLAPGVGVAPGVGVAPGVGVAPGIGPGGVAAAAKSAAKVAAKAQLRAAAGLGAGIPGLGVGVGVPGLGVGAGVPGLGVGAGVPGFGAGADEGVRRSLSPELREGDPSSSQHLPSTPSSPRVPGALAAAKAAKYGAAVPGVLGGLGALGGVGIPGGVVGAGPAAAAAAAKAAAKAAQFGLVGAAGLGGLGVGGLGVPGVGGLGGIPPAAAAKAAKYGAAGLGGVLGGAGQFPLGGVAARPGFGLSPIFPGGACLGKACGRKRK
Method: The binding affinity of Gd-TESMA and Gd4-TESMA to tropoelastin was assessed by surface plasmon resonance (SPR) under the kinetic affinity mode.
The binding affinity between tropoelastin (human recombinant tropoelastin, Advanced BioMatrix, Cat. No. 5052-1MG, Batch No. 7932) and Gd4-TESMA or Gd-TESMA was assessed by surface plasmon resonance (SPR) on a Biacore 2000 instrument (Cytiva). The instrument was equipped with a CM5 sensor chip carrying carboxymethylated dextran (Cytiva). First, the ligand was immobilized on the sensor chip surface by amine coupling: the flow cell was activated for 7 min by a 1-ethyl-3-(3-dimethylaminopropyl)carbodiimide hydrochloride (EDC)/N-hydroxysuccinimide (NHS) mixture. Then, tropoelastin was injected at 200 μM in a 10 mM sodium acetate buffer (pH 4) with a flow rate of 5 μL min^–1 to reach an immobilization level corresponding to 3500–5000 resonance units (R.U.). The remaining active sites were blocked by 1 M of ethanolamine-HCl (pH 8.5) for 7 min. As a control for nonspecific interaction, another flow cell on the CM5 sensor chip was treated in the same manner but without adding tropoelastin. […] The equilibrium dissociation constant (KD) and the kinetic association and dissociation rate constants (ka and kd) were determined by curve-fitting using the 1:1 Langmuir binding model implemented in the Biaevaluation software 4.1.1.[48] […]

[4] = Relaxometry: water proton longitudinal relaxivity; format: physicochemical; conditions: 298 K, 3.8 mM HEPES, 150 mM NaCl, pH 7.2
Method: The relaxivity per gadolinium of Gd4-TESMA is 8.5 ± 0.2 mM^–1 s^–1 (at 20 MHz, 298 K, 3.8 mM HEPES, 150 mM NaCl, pH 7.2; Table 1), while that of Gd-TESMA under the same conditions cannot be defined uniquely as it changes with the concentration of the complex.
The water proton longitudinal relaxation rates as a function of the magnetic field strength were measured in aqueous solutions using a Fast Field-Cycling Stelar SmarTracer relaxometer (Stelar s.r.l., Mede (PV), […] MHz proton Larmor frequencies). The relaxometer operates under computer control with an absolute uncertainty in 1/T1 of 1%. […] The ^1H T1 relaxation times were acquired by the standard inversion recovery method with a typical 90° pulse width of 3.5 μs, 16 experiments, and 4 scans. The temperature was controlled using a Stelar VTC-91 airflow heater equipped with a calibrated copper–constantan thermocouple (uncertainty of ±0.1 °C).
MRI data are presented as median ± interquartile range (IQR). […] P values <0.05 were considered statistically significant.

[5] = Serum stability by RP-HPLC; conditions: male, human, 50% (v/v) aqueous pooled human serum
Method: The stabilities of Gd4-TESMA and the parent VVGS-peptide in human serum were evaluated by HPLC (Figure 6). Compounds were incubated up to 120 min, and aliquots were taken at different times: 0, 35, and 120 min.
The serum stabilities of Gd4-TESMA and its parent peptide (VVGS-peptide) were determined in 50% (v/v) aqueous pooled serum from human male AB plasma, which was purchased from Sigma-Aldrich (Milan, Italy). Samples were dissolved in water (6.6 mM), diluted in serum (previously centrifuged at 8000 rpm for 15 min at 4 °C) at a final concentration of 0.6 mM (220 μL), and subsequently incubated at 37 °C. Aliquots (6 μL) taken after 0, 35, and 120 min were diluted in water at a final concentration of 0.06 mM. The samples were analyzed by RP-HPLC using an Atlantis dC18 column, 5 μm, 4.6 × 150 mm, as described in ref ([47]). The amount of intact compound was estimated by integrating the area under the corresponding elution peak monitored at 210 nm. Five replicate experiments for each compound were carried out. The […] (HPLW peptide),[47] unrelated to TESMA, was used as a positive control.

[6] = molecular target: T2, human recombinant tropoelastin (human, UniProt P15502 27-786); assay: SPR; Biacore 2000; tropoelastin immobilised on a CM5 chip by amine coupling (3500-5000 R.U.); analyte injected at 20 uL/min for 3 min at 25 °C in HEPES running buffer (pH 7.4, HBS-P) or 10 mM HEPES; control flow cell subtracted; 1:1 Langmuir fit; triplicate; conditions: both partners purified
T2 construct: tropoelastin (soluble elastin precursor), human, recombinant; also called TE; source: bought: Advanced BioMatrix (Cat. No. 5052-1MG, Batch No. 7932)
T2 sequence (looked up): T1 sequence (P15502 27-786)

C-GAESAPLVSSVQSPD [Gd4-scTESMA]
accumulation within plaques ([1]; ApoE–/– mice, LGE MRI, in comparison to Gd4-TESMA): low/negligible accumulation within plaques

Gd-TESMA: single Gd-DOTA monoamide unit conjugated with a 15-residue peptide sequence (VVGS-peptide); monomeric counterpart, purchased (VVGSPSAQDEASPLS; also: single Gd-DOTA monoamide unit conjugated, site not given here) [reference compound]
vessel wall-to-blood CNR at 0.5 h postinjection ([1]; ApoE–/– mice on HFD 16 weeks, 3 T LGE MRI, 0.5 h, median (IQR)): 6.75
aggregation (inferred from concentration dependence of relaxivity and NMRD profile) [2]: self-assembled into aggregates with high polydispersity at relatively high concentrations
dissociation rate constant kd [3]: 2.3 × 10^–2 ± 0.5 × 10^–2 s^–1
relaxivity per gadolinium at 18 μM probe ([4]; 18 μM probe, 20 MHz): 6.1 mM^–1 s^–1
relaxivity r1 at 20 MHz, probe at 1 mM ([4]; 1 mM probe, 20 MHz, mean ± SD): 10.0 ± 0.3 mM^–1 s^–1
relaxivity r1 at 125 MHz, probe at 1 mM ([4]; 1 mM probe, 125 MHz, mean ± SD): 10.4 ± 0.3 mM^–1 s^–1
relaxivity per gadolinium at 2.3 mM probe ([4]; 2.3 mM probe, 20 MHz): 12.4 mM^–1 s^–1

VVGSPSAQDEASPLS [VVGS-peptide]
half-life at 0.6 mM [5]: ~45 min
remaining at 2 h, 0.6 mM [5]: ~20%

B1: Gd-TESMA (peptide)
peptide: VVGSPSAQDEASPLS
modifications: also: single Gd-DOTA monoamide unit conjugated, site not given here
notes: also called monomeric Gd-TESMA probe; source: bought: For Peptide Protein Research Limited (Fareham, UK)
Kd [6]: 28 µM
koff [6]: 0.023 s⁻¹
kon [6]: 880 M⁻¹ s⁻¹

B2: Gd4-TESMA (peptide)
peptide: C((Gd-DOTA)4‑MI)VVGSPSAQDEASPLS
modifications: also: Gd(III) chelates, thiol/maleimide conjugation
notes: also called tetrameric Gd4-TESMA probe; source: synthetic peptide (Fmoc SPPS), reacted with [Gd-DOTA]4-MI, purified by semipreparative HPLC
Kd [6]: 41 µM
